According to US20230190885A1, “PLACENTAL ALKALINE PHOSPHATASE TO PROMOTE SCAR-FREE HEALING OF ACNE VULGARIS AND OTHER INFLAMMATORY SKIN LESIONS CAUSED BY MICROBIAL INFECTIONS” (priority 2021, published 2023):

Tests used:
HaCaT cells [1] = assay: MTT assay, proliferation/viability of HaCaT keratinocytes; type: cell-based, human; conditions: 72 hours; for Viability of Cells (Absorption: A540) HaCaT cells: MTT, 200 nM PLAP or rPLAP, 100 µM ATP, mean ± S.D. of eight wells
From the text: The immortalized human HaCaT keratinocyte cell line, isolated in 1988 [Boukamp, P., Petrussevska, R.T., Breitkreutz, D., Hornung, J., and Markham, A., “Normal keratinization in a spontaneously immortalized aneuploid human keratinocyte cell line,” J. Cell. Biol., 106, 761-771, 1988], was provided for these studies by the Institute of Dermatology, Szeged University, , Szeged, Hungary). HaCaT cells were maintained in 10% fetal bovine serum (FBS) and 1% penicillin-streptomycin -containing Dulbecco’s modified Eagle’s medium (DMEM) up to 80% confluency in an incubator (5% CO2, 37° C.). Cells were plated into 96 well plates at 20% confluency and incubated for 72 hours in an incubator (5% CO2, 37° C.) with 200 nM purified PLAP or rPLAP in the absence or presence of 100 µM ATP.
(§1) The relative changes in the number of viable cells were determined by the MTT assay. This colorimetric assay is based on the ability of living healthy cells (mostly the mitochondrial compartment), but not dead cells, to reduce 3-(4,5-dimethyl thizaol-2-yl)-[…] to a blue formazan product [Carmichael, J., De Graft, W.G., Gazdar, A.F., Minna, J.D. and Mitchell, J.B. Evaluation of tetrazolium-based semi-automated colorimetric assay: Assessment of chemosensitivity resting. Cancer Res. 47, 936-942, 1987] This technique is a widely used and accepted method to accurately determine the relative numbers of viable cells. For example, this is the official method used by the National Cancer Institute to screen anticancer drugs.
(§2) A MULTISKAN MS microplate reader purchased from Labsystems (Franklin, Massachusetts) was used to measure the formation of formazan as an increase in absorbance at a test wavelength of 540 nm and a reference wavelength of 690 nm. In the data analysis, data were expressed as mean values ± standard deviation (S.D.) of eight incubations (from eight wells) in one experiment. In each case, incubations were performed for 72 hours.

CCD 966 SK fibroblasts = assay: MTT assay, proliferation/viability of CCD 966 SK fibroblasts; type: cell-based, human; conditions: 72 hours; for Viability of Cells (Absorption: A540) CCD 966 SK: MTT, 200 nM PLAP or rPLAP, 100 µM ATP, mean ± S.D. of eight wells
Experimental: CCD 966 SK fibroblasts, originally derived from a subject and purchased from American Type Culture Collection (Alexandria, Virginia), were at passage 5 when used. The fibroblasts were maintained and treated as described above for the HaCaT cells.
as §1, §2

shingles = assay: Treatment of shingles in human subjects; type: in vivo; conditions: two subjects, recurrent painful shingles, oral, 4-times a day
Experimental: The PLAP cream can be used for the local treatment of Shingles or other skin lesions caused by reactivated HSV-1 or HSV-2 generally, but not always, along with treatment with a prescribed antiviral drug. The same carriers and additives may be used as described for the acne treatment, The recommended amount of PLAP per 1 gram carrier is 2.0 to 10.0 mg. Generally, the larger the lesion the more PLAP per 1 gram carrier is needed. As examples, if the area of the lesion is 10 cm^2 or smaller, 2 mg per 1 gram carrier is suitable. If the area of the lesion is larger than 10 cm^2 then, depending on the lesion’s size, the recommended concentration of PLAP is between 2.1 to 10.0 mg per 1 gram carrier. Local treatment of the lesion with PLAP cream is performed once daily along with oral administration of the prescribed antiviral drug (usually four-times a day). Local administration of the antiviral drug is not recommended. In case of shingles, when the lesion treated with placental alkaline phosphatase or an active derivative is smaller than 2.0 cm^2, the use of an antiviral drug is optional. In cases of skin lesions caused by HSV-1 or HSV-2, the use of an oral antiviral drug is optional regardless of the lesion’s size.
Two individuals (one person and one person) had recurrent painful shingles at 10-16 months intervals, usually lasting for 4-6 weeks without treatment, associated with pain lasting beyond 6 weeks that prevented them to get a good night sleep.
When a new recurrence of shingles occurred again, the same two subjects were co-treated with local PLAP cream (5 mg PLAP in 1-gram Vaselinum cholesterinatum) and oral acyclovir. The two subjects responded to this combination treatment similarly.
They started the treatment with acyclovir and PLAP cream on day 0. […] Complete healing of both subjects occurred by day 12 (the subject) and day 14 (the subject).
Two female individuals, had recurrent (practically yearly) moderate shingles (one had under the breast, the other had on the arm, both approximately the size of 1-2 cm^2) previously lasting for about 2-3 weeks. […]

acne lesion = assay: Topical treatment of acne lesions in human subjects; type: in vivo; conditions: for visible effect on acne covered area: person, before PLAP treatment
From the text: Highly purified placenta derived PLAP, or essentially pure recombinant PLAP, or an essentially pure active derivative thereof, is dispersed in a suitable carrier and gently massaged onto the acne lesion. The carrier used in the invention is Vaselinum cholesterinatum, but it may be replaced by Vaselinum flavum or Vaselinum album. Vaselinum cholesterinatum consists of about 1.5 wt.-% cholesterol, about 5.0 wt.-% cerae lanae, and about 93.5 wt.-% Vaselinum flavum. In this invention, for a preparation containing PLAP or rPLAP in a carrier the term “PLAP cream” is used.
Other appropriate forms of PLAP containing compositions may contain other suitable carriers in the forms of gels, lotions, unguents, emollients, colloidal dispersions, suspensions, emulsions, oils, sprays, liposomes, non-ionic detergents, foams, mousses, and the like as used in the skin care industry with no damaging effects on the skin. Preferably, the chosen carrier would enable PLAP to exert its antiacne effect or at least would not reduce it. In addition, the carrier should not be comedogenic and should not inhibit interaction of PLAP with the acne lesion. In the preparation of the carrier-PLAP mixture, PLAP is first dissolved in distilled water or a suitable buffer and then mixed with the carrier. The PLAP cream contains highly purified PLAP or rPLAP, in the amount of 0.1 to 10 mg per one gram carrier gently massaged onto the area of acne lesion. The amount of PLAP depends on the severity of acne. In cases of light, moderate and severe acnes the recommended amount of PLAP per 1 gram carrier is 0.1 to 0.5 mg, 0.6 to 2 mg, and 2.1 to 10 mg PLAP, respectively. Before each daily treatment the acne lesion needs to be cleaned with a facial cleanser as recommended by the manufacturer. The length of the daily treatments is typically for about 3 weeks, but it may be extended until the lesion is healed.
Complete recovery of the original skin texture required about 5 weeks with no additional treatments needed between 3 to 5 weeks.
Complete recovery of the original skin texture required about 6 weeks with no additional treatments needed between 3 to 6 weeks.
Complete recovery of the original skin texture required about 8 weeks with no additional treatments needed between 4 to 8 weeks.
This idea was tested with 16-17-year-old males who started to develop acne during a 2 to 4-day period. Treatments (2-mg PLAP in 1-gram Vaselinum cholesterinatum) were applied at bedtime only once.

HaCaT cells [2] = assay: [U-14C]ATP hydrolysis and adenosine formation in intact HaCaT cells; type: cell-based, human; conditions: 2 hours
Experimental: (§3) In these experiments, PLAP was incubated with human HaCaT cells and human 966 SK fibroblasts. The plasma membranes of both cell lines contain ectonucleotidases that hydrolyze ATP to result in the formation of adenosine. If PLAP binds ATP as reported earlier, it will compete with the ectonucleotidases for ATP. In this case, in the presence of PLAP the formation of adenosine, the final product of ATP hydrolysis, should be reduced. The experiment performed under this Example served to examine this possibility.
(§4) HaCaT and 966 SK cells were grown in 10% serum containing DMEM medium (0.1 ml) in 96-well plates to confluence. First, the medium was changed for serum-free medium. […] (0.1 mM) of [U-^14C] ATP (purchased from Amersham). Incubations in an incubator were performed for 2 hours. […] aliquots were withdrawn into small centrifuge tubes followed by the addition of 0.15 ml of chloroform methanol 2:1 mixture containing 1 mM adenosine (to help UV visualization and reduce cellular uptake of [U-^14C] Adenosine) to precipitate the proteins and eliminate lipids. After centrifugation, 5 µl aliquots of the lower phase were transferred to fluorescent PEI-cellulose (polyethyleneimine-impregnated cellulose) plates, and after drying the plates they were developed with water in a flat bottom chamber. After drying and visualizing the adenosine and nucleotide spots under UV (all nucleotides remained in the application spots), the respective areas were cut out, placed in scintillation vials, and radioactivity was measured in a liquid scintillation spectrometer. Data is the mean of three independent determinations (from three separate wells) ± S.D. in the same experiment.

CCD 966 SK cells = assay: [U-14C]ATP hydrolysis and adenosine formation in intact CCD 966 SK fibroblasts; type: cell-based, human; conditions: 2 hours
Experimental: as §3, §4

[3] = CCD 966 SK fibroblasts, agent alone
[4] = PLAP, 500 nM, 0.1 mM [U-14C]ATP, mean ± S.D. of three wells

Nc1ncnc2c1ncn2[C@@H]1O[C@H](COP(=O)(O)OP(=O)(O)OP(=O)(O)O)[C@@H](O)[C@H]1O [ATP, adenosine 5′ triphosphate, reference compound]
effect on proliferation (in words) (HaCaT cells [1]; HaCaT cells, agent alone): no effects | Viability of Cells (Absorption: A540) HaCaT cells (HaCaT cells [1]): 0.841±0.037 | effect on proliferation (in words) (CCD 966 SK fibroblasts; [3]): no effects | Viability of Cells (Absorption: A540) CCD 966 SK (CCD 966 SK fibroblasts): 0.686±0.029

Nc1nc2c(ncn2COCCO)c(=O)[nH]1 [acyclovir]
effect on pain (shingles): no significant effect on pain | time of full healing of shingles (shingles): by the end of third week | remission of shingles (shingles; in 10-12 days): 40-50%

O=C(OOC(=O)c1ccccc1)c1ccccc1 [benzoyl peroxide]
visible effect on acne covered area (acne lesion; left side of face, as prescribed for 2 months): only small visible positive effects | visible effect on acne covered area (acne lesion; left side of face, as prescribed for 3 months): only small visible positive effects | visible effect on acne covered area (acne lesion; right side of face, as prescribed for 2 months): only small visible positive effects | visible effect on acne covered area (acne lesion; right side of face, as prescribed for 3 months): only small visible positive effects

B1: PLAP: full length placental alkaline phosphatase, highly purified from commercial PLAP (Sigma-Aldrich) (protein, UniProt P05187 23-506, looked up)
Alkaline phosphatase, …: IIPVEEENPDFWNREAAEALGAAKKLQPAQTAAKNLIIFLGDGMGVSTVTAARILKGQKKDKLGPEIPLAMDRFPYVALSKTYNVDKHVPDSGATATAYLCGVKGNFQTIGLSAAARFNQCNTTRGNEVISVMNRAKKAGKSVGVVTTTRVQHASPAGTYAHTVNRNWYSDADVPASARQEGCQDIATQLISNMDIDVILGGGRKYMFRMGTPDPEYPDDYSQGGTRLDGKNLVQEWLAKRQGARYVWNRTELMQASLDPSVTHLMGLFEPGDMKYEIHRDSTLDPSLMEMTEAALRLLSRNPRGFFLFVEGGRIDHGHHESRAYRALTETIMFDDAIERAGQLTSEEDTLSLVTADHSHVFSFGGYPLRGSSIFGLAPGKARDRKAYTVLLYGNGPGYVLKDGARPDVTESESGSPEYRQQSAVPLDEETHAGEDVAVFARGPQAHLVHGVQEQTFIAHVMAFAACLEPYTACDLAPPAGTTD
effect on proliferation (in words) (HaCaT cells [1]; HaCaT cells, agent alone): clearly stimulated proliferation | Viability of Cells (Absorption: A540) HaCaT cells (HaCaT cells [1]): 1.086± 0.047 | effect on proliferation (in words) (HaCaT cells [1]; epidermal (HaCaT) cells, in the presence of ATP): inhibited the proliferation | effect on proliferation (in words) (CCD 966 SK fibroblasts; [3]): clearly stimulated proliferation | Viability of Cells (Absorption: A540) CCD 966 SK (CCD 966 SK fibroblasts): 0.853±0.040 | effect on proliferation (in words) (CCD 966 SK fibroblasts; fibroblasts (CCD 966 SK), in the presence of ATP): inhibited the proliferation | formation of radiolabeled adenosine (in words) (HaCaT cells [2]): dramatic reduction | hydrolysis of ATP and related nucleotides (in words) (HaCaT cells [2]): greatly reduced the hydrolysis | Total [U-14C] nucleotide (HaCaT cells [2]; [4]): 1,572,853 ± 33,737 c.p.m./well | [U-14C] Adenosine (HaCaT cells [2]; [4]): 71,048 ± 2,220 c.p.m./well | formation of radiolabeled adenosine (in words) (CCD 966 SK cells): dramatic reduction | hydrolysis of ATP and related nucleotides (in words) (CCD 966 SK cells): greatly reduced the hydrolysis | Total [U-14C] nucleotide (CCD 966 SK cells; [4]): 1,653,949 ± 42,791 c.p.m./well | [U-14C] Adenosine (CCD 966 SK cells; [4]): 34,019 ± 4,892 c.p.m./well | time to complete healing of acne (acne lesion; 16-17-year-old males, acne developing during 2 to 4 days, 2-mg PLAP in 1-gram Vaselinum cholesterinatum, applied once at bedtime): 2 to 5 days | scar tissue formation (acne lesion; 16-17-year-old males, early acne, 2-mg PLAP in 1-gram carrier, applied once): without any scar tissue formation
